For assay [1], the target named is recombinant cynomolgus monkey CD3ε/δ heterodimer (cynomolgus monkey) (UniProt Q95LI5). Briefly: ELISA, coated CD3ε/δ.
The target of assay [2] is recombinant human CD3ε/δ heterodimer (human) (UniProt P07766). Put plainly: ELISA, coated CD3ε/δ. (In general: ELISA stands for enzyme-linked immunosorbent assay.)
The target of assay [3] is recombinant cynomolgus monkey CD3ε/δ heterodimer (cynomolgus monkey) (UniProt Q95LI5). Put plainly: BLI (Octet), antigen on anti-Penta His sensor, antibody 50 nM. (In general: In BLI a coated tip is dipped into the sample, and binding shifts an interference pattern.)
Assay [4] has as its target recombinant human CD3ε/δ heterodimer (human) (UniProt P07766). Described as above.

Changes are numbered by the printed parent chain.

Chain of recombinant cynomolgus monkey CD3ε/δ heterodimer (cynomolgus monkey) (Q95LI5 22-117, stated change not applied, chain 1 of 2): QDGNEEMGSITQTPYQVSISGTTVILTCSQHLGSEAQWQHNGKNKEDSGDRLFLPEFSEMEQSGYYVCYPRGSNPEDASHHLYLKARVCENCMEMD
Chain of recombinant cynomolgus monkey CD3ε/δ heterodimer (cynomolgus monkey) (Q95LI8 22-105, stated change not applied, chain 2 of 2, further chain): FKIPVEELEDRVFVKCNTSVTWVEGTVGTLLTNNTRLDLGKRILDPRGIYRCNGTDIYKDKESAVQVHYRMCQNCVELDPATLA
Chain of recombinant human CD3ε/δ heterodimer (human) (P07766 23-126, stated change not applied, chain 1 of 2): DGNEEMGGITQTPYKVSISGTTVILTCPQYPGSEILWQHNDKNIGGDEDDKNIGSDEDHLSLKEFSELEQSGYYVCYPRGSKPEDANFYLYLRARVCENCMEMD
Chain of recombinant human CD3ε/δ heterodimer (human) (P04234 22-105, stated change not applied, chain 2 of 2, further chain): as the sequence (Q95LI8 22-105, stated change not applied, chain 2 of 2, further chain) above, with V5I, K15N, V20I, T32S, N33D, N34I, A64T, N74S, L83V counted along it

B1: G13 (antibody, human IgG1, lambda, L234A L235A, V domains shown)
VH: EVQLVESGGGLVQPGGSLKLSCAASGFTFNTYAMNWVRQASGKGLEWVARIRSKYNNYATYYADSVKDRFTISRDDSQSTAYLQMNSLKTEDTAVYYCVRHGNFGNSYVSWFAYWGQGTLVTVSS
VL: QAVVTQEPSLTVSPGGTVTLTCRSSTGAVTTSNYANWVQQKPGQAPRGLIYGTNKRAPWTPARFSGSLLGGKAALTLSGAQPEDEAEYYCALWYSNLWVFGGGTKLTVLG
On to B1, for which the values for the Absorbance (450 nm) in assay [1] and in assay [2] were 0.242 and 0.265, respectively.

B2: B13 (antibody, human IgG1, lambda, L234A L235A, V domains shown)
VH: B1 VH with A49G, Q78K, S79N, A81L
VL: B1 VL
With B2, the Absorbance (450 nm) in assay [1] was 0.156; in assay [2], 0.169.

B3: B06 (antibody, human IgG1, lambda, L234A L235A, V domains shown)
VH: B1 VH with A49G, Q78K, S79N, A81L
VL: B1 VL with V38F, G71D
For B3, the Absorbance (450 nm) in assay [1] is 0.143; in assay [2] it was 0.138.

B4: H12 (antibody, human IgG1, lambda, L234A L235A, V domains shown)
VH: B1 VH with A81L
VL: B1 VL with G48T, Y51G, G71D
For the molecule B4, the Absorbance (450 nm) in assay [1] is 0.083; in assay [2], 0.099.

B5: B02 (antibody, human IgG1, lambda, L234A L235A, V domains shown)
VH: B1 VH with A49G, Q78K, S79N, A81L
VL: B1 VL with V38F, G48T, G71D
On to B5, for which the values for the Absorbance (450 nm) in assay [1] and in assay [2] were 0.072 and 0.086, respectively.

B6: B11 (antibody, human IgG1, lambda, L234A L235A, V domains shown)
VH: B1 VH with A49G, Q78K, S79N, A81L
VL: B1 VL with G48T, Y51G
In the case of B6, the Absorbance (450 nm) in assay [1] was 0.107; in assay [2], 0.132.

B7: H06 (antibody, human IgG1, lambda, L234A L235A, V domains shown)
VH: B1 VH with A81L
VL: B1 VL with V38F, G71D
Turning to B7, the Absorbance (450 nm) amounted to 0.101 in assay [1] and 0.134 in assay [2].

B8: H14 (antibody, human IgG1, lambda, L234A L235A, V domains shown)
VH: B1 VH with A81L
VL: B1 VL with G71D
Regarding B8, the Absorbance (450 nm) in assay [1] stood at 0.094; in assay [2], 0.096.

B9: H05 (antibody, human IgG1, lambda, L234A L235A, V domains shown)
VH: B1 VH with A81L
VL: B1 VL with V38F
Turning to B9, the Absorbance (450 nm) in assay [1] was found to be 0.061; in assay [2], 0.078.

B10: A12 (antibody, human IgG1, lambda, L234A L235A, V domains shown)
VH: B1 VH with A49G, Q78K, S79N
VL: B1 VL with G48T, Y51G, G71D
Regarding B10, the figures for the Absorbance (450 nm) in assay [1] and in assay [2] were 0.068 and 0.097, respectively.

B11: H08 (antibody, human IgG1, lambda, L234A L235A, V domains shown)
VH: B1 VH with A81L
VL: B1 VL with V38F, Y51G, G71D
Take B11: the Absorbance (450 nm) in assay [1] was determined as 0.136; in assay [2], 0.118.

B12: H09 (antibody, human IgG1, lambda, L234A L235A, V domains shown)
VH: B1 VH with A81L
VL: B1 VL with G48T
For the molecule B12, the figures for the Absorbance (450 nm) in assay [1] and in assay [2] were 0.113 and 0.141, respectively.

B13: G14 (antibody, human IgG1, lambda, L234A L235A, V domains shown)
VH: B1 VH
VL: B1 VL with G71D
On to B13, for which the values for the Absorbance (450 nm) in assay [1] and in assay [2] were 0.099 and 0.105, respectively.

B14: B04 (antibody, human IgG1, lambda, L234A L235A, V domains shown)
VH: B1 VH with A49G, Q78K, S79N, A81L
VL: B1 VL with V38F, G48T, Y51G, G71D
As to B14, the Absorbance (450 nm) in assay [1] was found to be 0.059; in assay [2] it was 0.087.

B15: B05 (antibody, human IgG1, lambda, L234A L235A, V domains shown)
VH: B1 VH with A49G, Q78K, S79N, A81L
VL: B1 VL with V38F
For the molecule B15, the Absorbance (450 nm) worked out at 0.1 in assay [1] and 0.102 in assay [2].

B16: B09 (antibody, human IgG1, lambda, L234A L235A, V domains shown)
VH: B1 VH with A49G, Q78K, S79N, A81L
VL: B1 VL with G48T
Turning to B16, the Absorbance (450 nm) in assay [1] came to 0.099; in assay [2] it was 0.096.

B17: A03 (antibody, human IgG1, lambda, L234A L235A, V domains shown)
VH: B1 VH with A49G, Q78K, S79N
VL: B1 VL with V38F, G48T, Y51G
Consider B17, for which the Absorbance (450 nm) in assay [1] stood at 0.094; in assay [2], 0.132.

B18: A13 (antibody, human IgG1, lambda, L234A L235A, V domains shown)
VH: B1 VH with A49G, Q78K, S79N
VL: B1 VL
For B18, the Absorbance (450 nm) in assay [1] is 0.154; in assay [2], 0.172.

B19: B14 (antibody, human IgG1, lambda, L234A L235A, V domains shown)
VH: B1 VH with A49G, Q78K, S79N, A81L
VL: B1 VL with G71D
B19: the Absorbance (450 nm) in assay [1] was 0.102; in assay [2], 0.127.

B20: H10 (antibody, human IgG1, lambda, L234A L235A, V domains shown)
VH: B1 VH with A81L
VL: B1 VL with G48T, G71D
B20: the Absorbance (450 nm) in assay [1] was 0.077; in assay [2], 0.088.

B21: H13 (antibody, human IgG1, lambda, L234A L235A, V domains shown)
VH: B1 VH with A81L
VL: B1 VL
On to B21, for which the values for the Absorbance (450 nm) in assay [1] and in assay [2] were 0.196 and 0.175, respectively.

B22: H04 (antibody, human IgG1, lambda, L234A L235A, V domains shown)
VH: B1 VH with A81L
VL: B1 VL with V38F, G48T, Y51G, G71D
Consider B22, for which the Absorbance (450 nm) in assay [1] worked out at 0.068; in assay [2], 0.077.

B23: B10 (antibody, human IgG1, lambda, L234A L235A, V domains shown)
VH: B1 VH with A49G, Q78K, S79N, A81L
VL: B1 VL with G48T, G71D
In the case of B23, the Absorbance (450 nm) in assay [1] was determined as 0.076; in assay [2], 0.098.

B24: B12 (antibody, human IgG1, lambda, L234A L235A, V domains shown)
VH: B1 VH with A49G, Q78K, S79N, A81L
VL: B1 VL with G48T, Y51G, G71D
Take B24: the results for the Absorbance (450 nm) in assay [1] and in assay [2] were 0.072 and 0.098, respectively.

B25: H11 (antibody, human IgG1, lambda, L234A L235A, V domains shown)
VH: B1 VH with A81L
VL: B1 VL with G48T, Y51G
On to B25, for which the Absorbance (450 nm) in assay [1] was 0.142; in assay [2], 0.122.

B26: C01 (antibody, human IgG1, lambda, L234A L235A, V domains shown)
VH: B1 VH with A49G
VL: B1 VL with V38F, G48T
For the molecule B26, the Absorbance (450 nm) in assay [1] came out at 0.075; in assay [2], 0.131.

B27: H07 (antibody, human IgG1, lambda, L234A L235A, V domains shown)
VH: B1 VH with A81L
VL: B1 VL with V38F, Y51G
As for B27, the Absorbance (450 nm) is 0.09 in assay [1] and 0.11 in assay [2].

B28: Mouse human chimeric SP34 IgG1 antibody (antibody, V domains shown)
VH: B1 VH with G15K, S41P, T80I, A81L, S87N, V95M
VL: QAVVTQESALTTSPGETVTLTCRSSTGAVTTSNYANWVQEKPDHLFTGLIGGTNKRAPGVPARFSGSLIGDKAALTITGAQTEDEAIYFCALWYSNLWVFGGGTKLTVLG
As usually defined, the Kd is a measure of binding affinity in units of concentration. Broadly, the koff is the rate constant with which the complex falls apart. As a reminder, the kon is the second-order rate constant of association. Turning to B28, in assay [3], the dissociation constant (Kd) is 0.14 nM, the koff came to 5.3e-05 s⁻¹ and the kon came out at 378000 M⁻¹ s⁻¹. Besides, in assay [4], the Kd is 0.229 nM, the koff is 6.01e-05 s⁻¹ and the kon was 262000 M⁻¹ s⁻¹.

B29: A02 (antibody, human IgG1, lambda, L234A L235A, V domains shown)
VH: B1 VH with A49G, Q78K, S79N
VL: B1 VL with V38F, G48T, G71D
For the molecule B29, the Absorbance (450 nm) was found to be 0.068 in assay [1] and 0.098 in assay [2].

B30: B03 (antibody, human IgG1, lambda, L234A L235A, V domains shown)
VH: B1 VH with A49G, Q78K, S79N, A81L
VL: B1 VL with V38F, G48T, Y51G
Consider B30, for which the Absorbance (450 nm) came to 0.091 in assay [1] and 0.126 in assay [2].

B31: H03 (antibody, human IgG1, lambda, L234A L235A, V domains shown)
VH: B1 VH with A81L
VL: B1 VL with V38F, G48T, Y51G
With B31, the Absorbance (450 nm) was found to be 0.085 in assay [1] and 0.113 in assay [2].

B32: A14 (antibody, human IgG1, lambda, L234A L235A, V domains shown)
VH: B1 VH with A49G, Q78K, S79N
VL: B1 VL with G71D
On to B32, for which the Absorbance (450 nm) in assay [1] was 0.113; in assay [2] it was 0.125.

B33: B01 (antibody, human IgG1, lambda, L234A L235A, V domains shown)
VH: B1 VH with A49G, Q78K, S79N, A81L
VL: B1 VL with V38F, G48T
As to B33, the Absorbance (450 nm) in assay [1] was found to be 0.071; in assay [2] it was 0.097.

B34: H01 (antibody, human IgG1, lambda, L234A L235A, V domains shown)
VH: B1 VH with A81L
VL: B1 VL with V38F, G48T
On to B34, for which the Absorbance (450 nm) in assay [1] was determined as 0.154; in assay [2] it was 0.121.

B35: H02 (antibody, human IgG1, lambda, L234A L235A, V domains shown)
VH: B1 VH with A81L
VL: B1 VL with V38F, G48T, G71D
With B35, the Absorbance (450 nm) was found to be 0.08 in assay [1] and 0.111 in assay [2].

(Values after US20200317779A1.)
